Results reported in the Immune Epitope Database (IEDB).

Assays:
[1] = biological target: HLA-B*18:01; assay: IEDB peptide-MHC binding, purified MHC/competitive/fluorescence; filed as Kd, often an IC50 or EC50 that approximates it; ≥ and ≤ were set here for values at or beyond the usual limits of such assays; settings: source organism: Zaire ebolavirus
[2] = biological target: HLA-B*57:01; assay: as above
[3] = biological target: HLA-A*26:01; assay: as above; settings: source organism: Zaire ebolavirus
[4] = biological target: HLA-A*69:01; assay: as above; settings: source organism: Zaire ebolavirus
[5] = biological target: HLA-B*15:01; assay: as above
[6] = biological target: HLA-B*15:17; assay: as above
[7] = biological target: HLA-B*39:01; assay: as above
[8] = biological target: HLA-B*51:01; assay: as above; settings: source organism: Zaire ebolavirus
[9] = biological target: HLA-B*46:01; assay: as above; settings: source organism: Zaire ebolavirus
[10] = biological target: HLA-B*27:03; assay: as above; settings: source organism: Zaire ebolavirus
[11] = biological target: HLA-A*02:01; assay: as above
[12] = biological target: HLA-B*07:02; assay: IEDB peptide-MHC binding, purified MHC/competitive/fluorescence; ≥ and ≤ were set here for values at or beyond the usual limits of such assays
[13] = biological target: HLA-A*02:01; assay: as above; settings: source organism: Zaire ebolavirus
[14] = biological target: HLA-B*08:01; assay: as above
[15] = biological target: HLA-A*24:02; assay: as above; settings: source organism: Zaire ebolavirus
[16] = biological target: HLA-B*07:02; assay: IEDB peptide-MHC binding, purified MHC/direct/fluorescence; filed as Kd, often an IC50 or EC50 that approximates it; ≥ and ≤ were set here for values at or beyond the usual limits of such assays
[17] = biological target: HLA-A*02:19; assay: as above
[18] = biological target: HLA-A*02:12; assay: as above
[19] = biological target: HLA-A*03:01; assay: as above
[20] = biological target: HLA-A*24:03; assay: as above; settings: source organism: Zaire ebolavirus
[21] = biological target: HLA-A*02:16; assay: as above; settings: source organism: Zaire ebolavirus
[22] = biological target: HLA-A*29:02; assay: as above
[23] = biological target: HLA-A*68:02; assay: as above; settings: source organism: Zaire ebolavirus
[24] = biological target: HLA-A*02:11; assay: as above; settings: source organism: Zaire ebolavirus
[25] = biological target: HLA-A*02:03; assay: as above; settings: source organism: Zaire ebolavirus
[26] = biological target: HLA-A*23:01; assay: as above; settings: source organism: Zaire ebolavirus
[27] = biological target: HLA-A*11:01; assay: IEDB peptide-MHC binding, purified MHC/competitive/fluorescence; ≥ and ≤ were set here for values at or beyond the usual limits of such assays
[28] = biological target: HLA-A*30:01; assay: IEDB peptide-MHC binding, purified MHC/competitive/fluorescence; filed as Kd, often an IC50 or EC50 that approximates it; ≥ and ≤ were set here for values at or beyond the usual limits of such assays; settings: source organism: Vibrio cholerae V52
[29] = biological target: HLA-A*02:06; assay: as above; settings: source organism: Vibrio cholerae V52
[30] = biological target: HLA-A*11:01; assay: as above; settings: source organism: Vibrio cholerae V52
[31] = biological target: HLA-B*18:01; assay: IEDB peptide-MHC binding, purified MHC/direct/fluorescence; filed as Kd, often an IC50 or EC50 that approximates it; ≥ and ≤ were set here for values at or beyond the usual limits of such assays; settings: source organism: Vibrio cholerae
[32] = biological target: HLA-B*15:09; assay: as above; settings: source organism: Vibrio vulnificus CMCP6
[33] = biological target: HLA-B*27:05; assay: as above; settings: source organism: Vibrio cholerae
[34] = biological target: HLA-A*26:02; assay: as above; settings: source organism: Vibrio vulnificus CMCP6
[35] = biological target: HLA-B*58:01; assay: as above; settings: source organism: Vibrio vulnificus CMCP6
[36] = biological target: HLA-A*69:01; assay: as above; settings: source organism: Vibrio cholerae
[37] = biological target: HLA-B*48:01; assay: as above; settings: source organism: Vibrio cholerae
[38] = biological target: HLA-B*51:01; assay: as above; settings: source organism: Vibrio vulnificus CMCP6
[39] = biological target: HLA-A*01:01; assay: as above; settings: source organism: Vibrio cholerae
[40] = biological target: HLA-B*40:01; assay: as above; settings: source organism: Vibrio cholerae
[41] = biological target: HLA-B*08:01; assay: as above; settings: source organism: Vibrio vulnificus CMCP6
[42] = biological target: HLA-A*31:01; assay: as above; settings: source organism: Vibrio cholerae
[43] = biological target: HLA-A*03:01; assay: IEDB peptide-MHC binding, purified MHC/competitive/fluorescence; ≥ and ≤ were set here for values at or beyond the usual limits of such assays; settings: source organism: Variola virus
[44] = source organism: Zaire ebolavirus
[45] = source organism: Vibrio cholerae V52
[46] = source organism: Vibrio vulnificus CMCP6

Which results are given for APFARLLNL?
Kd [1]: ≥ 20 µM; Kd [2, 44]: ≥ 20 µM; Kd [3]: ≥ 20 µM; Kd [4]: ≥ 20 µM; Kd [5, 44]: ≥ 20 µM; Kd [6, 44]: ≥ 20 µM; Kd [7, 44]: ≥ 20 µM; Kd [8]: ≥ 20 µM; Kd [9]: ≥ 20 µM; Kd [10]: ≥ 20 µM; Kd [11, 44]: ≥ 20 µM; IC50 [12, 44]: 0.633 µM; IC50 [13]: ≥ 161 µM; IC50 [14, 44]: 7.08 µM; IC50 [15]: 5.54 µM; Kd [16, 44]: 0.0218 µM; Kd [17, 44]: ≥ 20 µM; Kd [18, 44]: ≥ 20 µM; Kd [19, 44]: ≥ 20 µM; Kd [20]: ≥ 20 µM; Kd [21]: ≥ 20 µM; Kd [22, 44]: ≥ 20 µM; Kd [23]: ≥ 20 µM; Kd [24]: ≥ 20 µM; Kd [25]: ≥ 20 µM; Kd [26]: ≥ 20 µM

For GRRTRREAI, which IC50 [27, 44] is on record?
Its IC50 is no less than 297 µM.

What about the IC50 [12, 44] of the same sequence?
The IC50 was no less than 102 µM.

What about the IC50 [13] of the same sequence?
Its IC50 is no less than 83.2 µM.

And the IC50 [14, 44]?
The IC50 was 7.09 µM.

With MVTLRKERL as the sequence, how does the IC50 [12, 44] read?
The IC50 was 10.4 µM.

And the IC50 [13]?
The IC50 was 18.8 µM.

And the IC50 [14, 44]?
Its IC50 is 13.9 µM.

What about the IC50 [15] of the same sequence?
The IC50 was 4.33 µM.

How did the Kd [28] turn out when TTILGLLPM was run?
The Kd was 0.677 µM.

And the Kd [29]?
The Kd was 0.0057 µM.

What about the Kd [30] of the same sequence?
The Kd was no less than 20 µM.

What about the Kd [2, 45] of the same sequence?
Its Kd is 3.58 µM.

What about the Kd [5, 45] of the same sequence?
Its Kd is 0.308 µM.

And the Kd [6, 45]?
Its Kd is 0.0387 µM.

What about the Kd [7, 45] of the same sequence?
The Kd was 0.618 µM.

What about the Kd [11, 45] of the same sequence?
The Kd was no less than 20 µM.

And the Kd [31]?
Its Kd is 0.012 µM.

And the Kd [32]?
Its Kd is 7.7 µM.

What about the Kd [33] of the same sequence?
The Kd was no less than 20 µM.

What about the Kd [34] of the same sequence?
Its Kd is no more than 0.001 µM.

What about the Kd [35] of the same sequence?
The Kd was 0.329 µM.

What about the Kd [36] of the same sequence?
The Kd was 0.0016 µM.

And the Kd [16, 46]?
Its Kd is no less than 20 µM.

What about the Kd [17, 46] of the same sequence?
The Kd was no less than 20 µM.

And the Kd [18, 46]?
Its Kd is no less than 20 µM.

What about the Kd [37] of the same sequence?
Its Kd is no less than 20 µM.

What about the Kd [38] of the same sequence?
Its Kd is no less than 20 µM.

What about the Kd ([19]; source organism: Vibrio cholerae) of the same sequence?
Its Kd is no less than 20 µM.

What about the Kd [39] of the same sequence?
Its Kd is no less than 20 µM.

And the Kd [22, 46]?
Its Kd is 0.016 µM.

And the Kd [40]?
Its Kd is 0.189 µM.

And the Kd [41]?
Its Kd is no less than 20 µM.

What about the Kd [42] of the same sequence?
Its Kd is no less than 20 µM.

For VARKHHTKI, which IC50 ([27]; source organism: Variola virus) is on record?
The IC50 was no less than 70.5 µM.

And the IC50 ([12]; source organism: Variola virus)?
The IC50 was 10.5 µM.

What about the IC50 [43] of the same sequence?
The IC50 was no less than 110 µM.

What about the IC50 ([14]; source organism: Variola virus) of the same sequence?
Its IC50 is no less than 348 µM.
